# Reference: patent US8900593B2 (Indiana University Research and Technology Corporation, priority 2007, dated 2014)
# Where two headings read alike, the source gives them in different places. Bridges are numbered along the chain shown (N, C = ends). Where no end group is shown, it is not given here. [ ]: non-standard residue; d: D form. The star is where a group is joined. Isobutyryl(2-imidazol-4-yl) = CC(C)(C(=O)*)c1c[nH]cn1; PEG = not defined here; Aib = CC(C)(N)C(=O)O
# How the values were obtained:
# GLP-1 receptor = biological target: T1, GLP-1 receptor (Homo sapiens, UniProt P43220); assay: Functional assay-cAMP synthesis, luciferase reporter in HEK293 cells co-transfected with GLP-1 receptor; type: cell-based; conditions: for GLP 1 Receptor Relative Potency (%): Table 11, relative to GLP-1-VKGG30 (SEQ ID NO: 527) = 100; for Percent Potency Relative to Native Ligand GLP-1Rec: relative to native GLP-1
# T1 construct: expressed in transfected cells; host or cells: HEK293
# T1 sequence (P43220 24-463, species assumed): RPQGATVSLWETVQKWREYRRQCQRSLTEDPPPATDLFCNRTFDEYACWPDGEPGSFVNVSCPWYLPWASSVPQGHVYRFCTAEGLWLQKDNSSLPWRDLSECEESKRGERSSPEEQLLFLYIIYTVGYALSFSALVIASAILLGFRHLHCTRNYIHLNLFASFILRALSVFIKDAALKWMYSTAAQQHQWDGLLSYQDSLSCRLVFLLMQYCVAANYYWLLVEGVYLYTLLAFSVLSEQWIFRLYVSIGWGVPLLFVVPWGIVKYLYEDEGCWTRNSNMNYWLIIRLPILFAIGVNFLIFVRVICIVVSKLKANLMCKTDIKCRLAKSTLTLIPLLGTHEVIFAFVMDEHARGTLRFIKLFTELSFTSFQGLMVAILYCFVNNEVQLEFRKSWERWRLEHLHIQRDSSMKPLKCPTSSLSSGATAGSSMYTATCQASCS
# glucagon receptor = biological target: T2, glucagon receptor (Homo sapiens, UniProt P47871); assay: Functional assay-cAMP synthesis, luciferase reporter in HEK293 cells co-transfected with glucagon receptor; type: cell-based; conditions: for Percent Potency Relative to Native Ligand GRec: relative to native glucagon; for Parent w/PEG % Potency Relative to Native GR / Parent w/o PEG % Potency Relative to Native GR: Table 12; for Parent w/PEG % Potency Relative to Native GR: pegylated peptide; for Parent w/o PEG % Potency Relative to Native GR: peptide without PEG
# T2 construct: expressed in transfected cells; host or cells: HEK293
# T2 sequence (P47871 26-477): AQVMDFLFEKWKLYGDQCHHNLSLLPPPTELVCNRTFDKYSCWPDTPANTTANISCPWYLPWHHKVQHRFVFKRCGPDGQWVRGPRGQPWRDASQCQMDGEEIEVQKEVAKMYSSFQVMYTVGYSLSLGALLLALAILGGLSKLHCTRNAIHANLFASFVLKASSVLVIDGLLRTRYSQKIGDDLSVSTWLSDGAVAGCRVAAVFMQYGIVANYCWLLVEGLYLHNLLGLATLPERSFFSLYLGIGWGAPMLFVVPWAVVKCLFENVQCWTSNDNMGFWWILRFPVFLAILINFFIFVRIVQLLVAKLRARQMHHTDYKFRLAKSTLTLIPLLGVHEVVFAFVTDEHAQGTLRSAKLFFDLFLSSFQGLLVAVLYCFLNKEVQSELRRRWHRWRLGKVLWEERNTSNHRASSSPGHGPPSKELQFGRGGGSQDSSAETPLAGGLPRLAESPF
# [1] = read-out: cAMP Induction Glucagon Receptor EC50, Table 3, pegylated glucagon analogs
compound,measurement,setting,value
HSQGTFTSDYSKYLDSRRAQDFVQWLVKGGPSSGAPPPS-NH2 [-VKGG^30 PSSGAPPPS (SEQ ID NO: 524)],EC50,GLP-1 receptor,0.21 nM
same,GLP 1 Receptor Relative Potency (%),GLP-1 receptor,12%
same,EC50,glucagon receptor,1.16 nM
same,Glucagon Receptor Relative Potency (%),"glucagon receptor; Table 11, relative to glucagon (SEQ ID NO: 1) = 100",7%
"Glucagon Cys^24 maleimido,PEG-3.4K-dimer [Glucagon C24 Dimer]",EC50,glucagon receptor; [1],0.1 ± 0.05 nM
HSQGTFTSDYSKYLDERRAKDFVQW LMNTa [E16K20 Gluc-NH2 Lac] (HSQGTFTSDYSKYLDERRAKDFVQWLMNT-NH2; lactam 16-20; N-terminus assumed; SMILES CSCC[C@H](NC(=O)[C@H](CC(C)C)NC(=O)[C@H](Cc1c[nH]c2ccccc12)NC(=O)[C@H](CCC(N)=O)NC(=O)[C@@H](NC(=O)[C@H](Cc1ccccc1)NC(=O)[C@H](CC(=O)O)NC(=O)[C@@H]1CCCCNC(=O)CC[C@H](NC(=O)[C@H](CC(=O)O)NC(=O)[C@H](CC(C)C)NC(=O)[C@H](Cc2ccc(O)cc2)NC(=O)[C@H](CCCCN)NC(=O)[C@H](CO)NC(=O)[C@H](Cc2ccc(O)cc2)NC(=O)[C@H](CC(=O)O)NC(=O)[C@H](CO)NC(=O)[C@@H](NC(=O)[C@H](Cc2ccccc2)NC(=O)[C@@H](NC(=O)CNC(=O)[C@H](CCC(N)=O)NC(=O)[C@H](CO)NC(=O)[C@@H](N)Cc2c[nH]cn2)[C@@H](C)O)[C@@H](C)O)C(=O)N[C@@H](CCCNC(=N)N)C(=O)N[C@@H](CCCNC(=N)N)C(=O)N[C@@H](C)C(=O)N1)C(C)C)C(=O)N[C@@H](CC(N)=O)C(=O)N[C@H](C(N)=O)[C@@H](C)O),Percent Potency Relative to Native Ligand GLP-1Rec,"GLP-1 receptor; Table 9, E16/lactam analogs",63.0%
same,Percent Potency Relative to Native Ligand GRec,"glucagon receptor; Table 9, E16/lactam analogs",180.8%
HX2QGT FTSDY SKYLD EQAAK EFIC*W LMNTa,Parent w/PEG % Potency Relative to Native GLP-1R,GLP-1 receptor,38.0%
same,Parent w/o PEG % Potency Relative to Native GLP-1R,GLP-1 receptor,230.4%
same,Parent w/PEG % Potency Relative to Native GR,glucagon receptor,9.2%
same,Parent w/o PEG % Potency Relative to Native GR,glucagon receptor,114.2%
"HSQGT FTSDYSKYLD EQAAK EFIC*W LMNTa (HSQGTFTSDYSKYLDEQAAKEFIC(PEG)WLMNT-NH2; reading uncertain) [Chimera Cys24 (SEQ ID NO: 518), C* is Cys attached to PEG in the tested form]",Parent w/PEG % Potency Relative to Native GLP-1R,"GLP-1 receptor; Table 12, pegylated peptide",29.3%
same,Parent w/PEG % Potency Relative to Native GR,glucagon receptor,19.8%
X1SQGT FTSDY SKYLD EQAAK EFIC*W LMNTa,Parent w/PEG % Potency Relative to Native GLP-1R,GLP-1 receptor,12.5%
same,Parent w/o PEG % Potency Relative to Native GLP-1R,GLP-1 receptor,82.5%
same,Parent w/PEG % Potency Relative to Native GR,glucagon receptor,19.1%
same,Parent w/o PEG % Potency Relative to Native GR,glucagon receptor,160.7%
Glucagon Cys^29 Mal-PEG-5K [Glucagon C29 PEG 5K],EC50,glucagon receptor; [1],0.96 ± 0.07 nM
"CC[C@H](C)[C@H](NC(=O)[C@H](Cc1ccccc1)NC(=O)[C@H](CCC(=O)O)NC(=O)[C@H](CCCCN)NC(=O)[C@H](C)NC(=O)[C@H](C)NC(=O)[C@H](CCC(N)=O)NC(=O)CNC(=O)[C@H](CCC(=O)O)NC(=O)[C@H](CC(C)C)NC(=O)[C@H](Cc1ccc(O)cc1)NC(=O)[C@H](CO)NC(=O)[C@H](CO)NC(=O)[C@@H](NC(=O)[C@H](CC(=O)O)NC(=O)[C@H](CO)NC(=O)[C@@H](NC(=O)[C@H](Cc1ccccc1)NC(=O)[C@@H](NC(=O)CNC(=O)[C@H](CCC(=O)O)NC(=O)[C@H](C)NC(=O)[C@@H](N)Cc1c[nH]cn1)[C@@H](C)O)[C@@H](C)O)C(C)C)C(=O)N[C@@H](C)C(=O)N[C@@H](Cc1c[nH]c2ccccc12)C(=O)N[C@@H](CC(C)C)C(=O)N[C@H](C(=O)N[C@@H](CCCCN)C(=O)NCC(=O)NCC(N)=O)C(C)C [GLP-1-VKGG^30 (SEQ ID NO: 527), HAEGTFTSDVSSYLEGQAAKEFIAW LVKGGa, reference compound]",GLP 1 Receptor Relative Potency (%),GLP-1 receptor,100%
same,EC50,GLP-1 receptor; read-out: GLP 1 Receptor EC50,0.025 nM
SEQ ID NO: 22: glucagon analog substituting the native glutamine at position 3 with glutamic acid,selectivity for the GLP-1 receptor,GLP-1 receptor; versus glucagon receptor,approximately a tenfold selectivity
HX2QGT FTSDY SKYLD ERRAK DFVC*W LMNTa (H[Aib]QGTFTSDYSKYLDERRAKDFVCWLMNT-NH2; lactam (positions not given here); also: optional PEG on Cys24) [X2=AIB; C* is Cys or Cys attached to PEG],Parent w/PEG % Potency Relative to Native GLP-1R,GLP-1 receptor,31.0%
same,Parent w/o PEG % Potency Relative to Native GLP-1R,GLP-1 receptor,96.9%
same,Parent w/PEG % Potency Relative to Native GR,glucagon receptor,15.8%
same,Parent w/o PEG % Potency Relative to Native GR,glucagon receptor,108.3%
"HSQGTFTSDYSKYLDERRAKDFVQW LMNTa [E16, K20 Gluc-NH2] (HSQGTFTSDYSKYLDERRAKDFVQWLMNT-NH2)",Percent Potency Relative to Native Ligand GLP-1Rec,GLP-1 receptor; Table 5,41.5%
same,Percent Potency Relative to Native Ligand GLP-1Rec,"GLP-1 receptor; Table 9, E16/lactam analogs",41.5%
same,Percent Potency Relative to Native Ligand GRec,glucagon receptor; Table 5,130.1%
same,Percent Potency Relative to Native Ligand GRec,"glucagon receptor; Table 9, E16/lactam analogs",130.1%
"X1SQGT FTSDYSKYLD EQAAK EFIAW LMNC*a ([Isobutyryl(2-imidazol-4-yl)]SQGTFTSDYSKYLDEQAAKEFIAWLMNC(PEG)-NH2; reading uncertain) [Chimera DMIA1, Cys29 (SEQ ID NO: 520), X1=DMIA; C* is Cys attached to PEG in the tested form]",Parent w/PEG % Potency Relative to Native GLP-1R,"GLP-1 receptor; Table 12, pegylated peptide",27.3%
same,Parent w/PEG % Potency Relative to Native GR,glucagon receptor,5.3%
"HX2QGT FTSDY SKYLD EQAAK EFIC*W LMNTa [Chimera AIB2, Cys24 (SEQ ID NO: 486)]",Parent w/PEG % Potency Relative to Native GLP-1R,"GLP-1 receptor; Table 12, pegylated peptide",82.5%
same,Parent w/o PEG % Potency Relative to Native GLP-1R,"GLP-1 receptor; Table 12, peptide without PEG",160.6%
same,Parent w/PEG % Potency Relative to Native GR,glucagon receptor,2.6%
same,Parent w/o PEG % Potency Relative to Native GR,glucagon receptor,15.4%
CSCC[C@H](NC(=O)[C@H](CC(C)C)NC(=O)[C@H](Cc1c[nH]c2ccccc12)NC(=O)[C@H](CCC(N)=O)NC(=O)[C@@H](NC(=O)[C@H](Cc1ccccc1)NC(=O)[C@H](CC(=O)O)NC(=O)[C@H](CCC(N)=O)NC(=O)[C@H](C)NC(=O)[C@H](CCCNC(=N)N)NC(=O)[C@H](CCCNC(=N)N)NC(=O)[C@H](CO)NC(=O)[C@H](CC(=O)O)NC(=O)[C@H](CC(C)C)NC(=O)[C@H](Cc1ccc(O)cc1)NC(=O)[C@H](CCCCN)NC(=O)[C@H](CO)NC(=O)[C@H](Cc1ccc(O)cc1)NC(=O)[C@H](CC(=O)O)NC(=O)[C@H](CO)NC(=O)[C@@H](NC(=O)[C@H](Cc1ccccc1)NC(=O)[C@@H](NC(=O)CNC(=O)[C@H](CCC(N)=O)NC(=O)[C@H](CO)NC(=O)[C@@H](N)Cc1c[nH]cn1)[C@@H](C)O)[C@@H](C)O)C(C)C)C(=O)N[C@@H](CC(=O)O)C(=O)NCC(=O)NCC(=O)N1CCC[C@H]1C(=O)N[C@@H](CO)C(=O)N[C@@H](CO)C(=O)NCC(=O)N[C@@H](C)C(=O)N1CCC[C@H]1C(=O)N1CCC[C@H]1C(=O)N1CCC[C@H]1C(=O)N[C@@H](CO)C(N)=O [-MDGG^30 PSSGAPPPS (SEQ ID NO: 525)],EC50,GLP-1 receptor,0.13 nM
Glucagon Cys^17 Mal-PEG-5K [Glucagon C17 PEG 5K],EC50,glucagon receptor; [1],0.82 ± 0.15 nM
CSCC[C@H](NC(=O)[C@H](CC(C)C)NC(=O)[C@H](Cc1c[nH]c2ccccc12)NC(=O)[C@H](CCC(N)=O)NC(=O)[C@@H](NC(=O)[C@H](Cc1ccccc1)NC(=O)[C@H](CC(=O)O)NC(=O)[C@H](CCC(N)=O)NC(=O)[C@H](C)NC(=O)[C@H](CCCNC(=N)N)NC(=O)[C@H](CCCNC(=N)N)NC(=O)[C@H](CO)NC(=O)[C@H](CC(=O)O)NC(=O)[C@H](CC(C)C)NC(=O)[C@H](Cc1ccc(O)cc1)NC(=O)[C@H](CCCCN)NC(=O)[C@H](CO)NC(=O)[C@H](Cc1ccc(O)cc1)NC(=O)[C@H](CC(=O)O)NC(=O)[C@H](CO)NC(=O)[C@@H](NC(=O)[C@H](Cc1ccccc1)NC(=O)[C@@H](NC(=O)CNC(=O)[C@H](CCC(N)=O)NC(=O)[C@H](CO)NC(=O)[C@@H](N)Cc1c[nH]cn1)[C@@H](C)O)[C@@H](C)O)C(C)C)C(=O)N[C@@H](CC(N)=O)C(=O)NCC(=O)NCC(=O)N1CCC[C@H]1C(=O)N[C@@H](CO)C(=O)N[C@@H](CO)C(=O)NCC(=O)N[C@@H](C)C(=O)N1CCC[C@H]1C(=O)N1CCC[C@H]1C(=O)N1CCC[C@H]1C(=O)N[C@@H](CO)C(N)=O [-MNGG^30 PSSGAPPPS (SEQ ID NO: 522)],EC50,GLP-1 receptor,0.31 nM
same,GLP 1 Receptor Relative Potency (%),GLP-1 receptor,8%
CSCC[C@H](NC(=O)[C@H](CC(C)C)NC(=O)[C@H](Cc1c[nH]c2ccccc12)NC(=O)[C@H](CCC(N)=O)NC(=O)[C@@H](NC(=O)[C@H](Cc1ccccc1)NC(=O)[C@H](CC(=O)O)NC(=O)[C@H](CCCCN)NC(=O)[C@H](C)NC(=O)[C@H](CCCNC(=N)N)NC(=O)[C@H](CCCNC(=N)N)NC(=O)[C@H](CCC(=O)O)NC(=O)[C@H](CC(=O)O)NC(=O)[C@H](CC(C)C)NC(=O)[C@H](Cc1ccc(O)cc1)NC(=O)[C@H](CCCCN)NC(=O)[C@H](CO)NC(=O)[C@H](Cc1ccc(O)cc1)NC(=O)[C@H](CC(=O)O)NC(=O)[C@H](CO)NC(=O)[C@@H](NC(=O)[C@H](Cc1ccccc1)NC(=O)[C@@H](NC(=O)CNC(=O)[C@H](CCC(N)=O)NC(=O)[C@H](CO)NC(=O)[C@@H](N)Cc1c[nH]cn1)[C@@H](C)O)[C@@H](C)O)C(C)C)C(=O)N[C@@H](CC(=O)O)C(=O)NCC(=O)NCC(=O)N1CCC[C@H]1C(=O)N[C@@H](CO)C(=O)N[C@@H](CO)C(=O)NCC(=O)N[C@@H](C)C(=O)N1CCC[C@H]1C(=O)N1CCC[C@H]1C(=O)N1CCC[C@H]1C(=O)N[C@@H](CO)C(N)=O,EC50,GLP-1 receptor,0.02 nM
Oxyntomodulin C24 PEG 20K: oxyntomodulin Cys24 pegylated with 20K PEG,EC50,"glucagon receptor; read-out: cAMP Induction Glucagon Receptor EC50, Table 2, analogs with C-terminus extension",0.97 ± 0.04 nM
"HSQGTFTSDYSKYLDEQAAKEFIAWLMNT-NH2 [E16 GLP(17-26)Glu(27-29)-NH2, HSQGTFTSDYSKYLDEQAAKEFIAW LMNTa]",EC50,"glucagon receptor; Glucagon Receptor EC50(nM), Table 10, GLP-1 17-26 glucagon analogs",0.076 nM
